Assay results from PMC5241803, “Structural basis for the recognition and degradation of host TRIM proteins by Salmonella effector SopA” (Nature Communications, 2017).

What was measured:
GST-SopA = molecular target: T1, GST-SopA (S. Typhimurium, UniProt Q8ZNR3 1-782); test: pull-down; settings: both partners purified
T1 construct: also called recombinant SopA; source: E. coli BL21 (DE3), purified on glutathione sepharose 4B beads; not shown: GST, N-terminal, kept
T1 sequence: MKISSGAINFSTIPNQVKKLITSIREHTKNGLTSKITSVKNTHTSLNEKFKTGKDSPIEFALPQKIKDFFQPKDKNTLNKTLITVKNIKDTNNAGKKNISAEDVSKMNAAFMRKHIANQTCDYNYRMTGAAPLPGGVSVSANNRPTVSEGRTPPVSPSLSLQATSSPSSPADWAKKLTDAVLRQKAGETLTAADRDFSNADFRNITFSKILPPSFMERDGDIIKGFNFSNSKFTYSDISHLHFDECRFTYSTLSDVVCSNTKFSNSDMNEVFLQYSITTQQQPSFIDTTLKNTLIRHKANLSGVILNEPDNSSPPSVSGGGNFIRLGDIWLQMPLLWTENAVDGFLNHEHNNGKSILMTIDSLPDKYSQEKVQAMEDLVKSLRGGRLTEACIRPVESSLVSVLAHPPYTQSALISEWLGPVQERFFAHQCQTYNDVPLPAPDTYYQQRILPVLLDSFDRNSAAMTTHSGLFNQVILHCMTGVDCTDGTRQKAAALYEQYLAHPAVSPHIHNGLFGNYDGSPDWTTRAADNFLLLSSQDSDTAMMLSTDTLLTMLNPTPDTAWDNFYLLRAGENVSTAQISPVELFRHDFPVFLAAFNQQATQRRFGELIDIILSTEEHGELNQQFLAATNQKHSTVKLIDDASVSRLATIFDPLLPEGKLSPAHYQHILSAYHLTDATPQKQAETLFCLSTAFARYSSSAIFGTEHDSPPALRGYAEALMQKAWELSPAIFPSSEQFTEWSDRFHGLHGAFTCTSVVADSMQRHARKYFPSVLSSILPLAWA

SopA (163–782) = molecular target: T2, SopA (163–782) (S. Typhimurium, UniProt Q8ZNR3 163-782); test: ITC; 1 mM TRIM56 (1–94) injected into 20 μM SopA (163–782) in the cell, 25 °C, 10 mM HEPES, 100 mM NaCl, 1 mM TCEP; VP-ITC; settings: both partners purified
T2 construct: also called SopA WT; source: bacterially expressed, purified (Talon beads, size exclusion)
T2 sequence: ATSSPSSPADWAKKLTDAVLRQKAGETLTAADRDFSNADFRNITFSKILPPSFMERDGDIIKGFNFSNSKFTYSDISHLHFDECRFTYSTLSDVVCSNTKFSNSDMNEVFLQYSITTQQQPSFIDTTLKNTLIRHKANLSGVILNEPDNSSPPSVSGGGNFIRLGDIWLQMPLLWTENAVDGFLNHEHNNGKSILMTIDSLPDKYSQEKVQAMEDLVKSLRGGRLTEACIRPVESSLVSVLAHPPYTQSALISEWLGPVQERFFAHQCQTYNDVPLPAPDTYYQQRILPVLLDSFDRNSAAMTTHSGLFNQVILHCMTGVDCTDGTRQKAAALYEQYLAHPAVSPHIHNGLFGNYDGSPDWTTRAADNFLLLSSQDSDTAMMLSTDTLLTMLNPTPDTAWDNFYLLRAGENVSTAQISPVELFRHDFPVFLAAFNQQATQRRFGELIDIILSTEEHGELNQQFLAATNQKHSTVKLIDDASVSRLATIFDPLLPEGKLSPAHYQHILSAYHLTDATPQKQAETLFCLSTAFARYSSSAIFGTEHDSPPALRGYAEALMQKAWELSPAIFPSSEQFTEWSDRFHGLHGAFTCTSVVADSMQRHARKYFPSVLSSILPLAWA

B1: MBP-TRIM56 (natural protein, human, UniProt Q9BRZ2 1-755, looked up)
chain: MVSHGSSPSLLEALSSDFLACKICLEQLRAPKTLPCLHTYCQDCLAQLADGGRVRCPECRETVPVPPEGVASFKTNFFVNGLLDLVKARACGDLRAGKPACALCPLVGGTSTGGPATARCLDCADDLCQACADGHRCTRQTHTHRVVDLVGYRAGWYDEEARERQAAQCPQHPGEALRFLCQPCSQLLCRECRLDPHLDHPCLPLAEAVRARRPGLEGLLAGVDNNLVELEAARRVEKEALARLREQAARVGTQVEEAAEGVLRALLAQKQEVLGQLRAHVEAAEEAARERLAELEGREQVARAAAAFARRVLSLGREAEILSLEGAIAQRLRQLQGCPWAPGPAPCLLPQLELHPGLLDKNCHLLRLSFEEQQPQKDGGKDGAGTQGGEESQSRREDEPKTERQGGVQPQAGDGAQTPKEEKAQTTREEGAQTLEEDRAQTPHEDGGPQPHRGGRPNKKKKFKGRLKSISREPSPALGPNLDGSGLLPRPIFYCSFPTRMPGDKRSPRITGLCPFGPREILVADEQNRALKRFSLNGDYKGTVPVPEGCSPCSVAALQSAVAFSASARLYLINPNGEVQWRRALSLSQASHAVAALPSGDRVAVSVAGHVEVYNMEGSLATRFIPGGKASRGLRALVFLTTSPQGHFVGSDWQQNSVVICDGLGQVVGEYKGPGLHGCQPGSVSVDKKGYIFLTLREVNKVVILDPKGSLLGDFLTAYHGLEKPRVTTMVDGRYLVVSLSNGTIHIFRVRSPDS
notes: TRIM56, human, full length, in pMAL-C2X; also called recombinant TRIM56; not shown: MBP, N-terminal, kept
GST-SopA
  binding result: binds

B2: TRIM56 (1–94) (domain or fragment, human, UniProt Q9BRZ2 1-94, looked up)
chain: MVSHGSSPSLLEALSSDFLACKICLEQLRAPKTLPCLHTYCQDCLAQLADGGRVRCPECRETVPVPPEGVASFKTNFFVNGLLDLVKARACGDL
notes: TRIM56, human, RING domain, residues 1-94; in the crystal this stretch stood N-terminal on one chain with SopA (163–425); also called TRIM56 RING domain; TRIM56 RING
SopA (163–782)
  Kd: ~9 µM
